Values quoted from earlier work, collected in patent US20260201061A1, “COMBINATION FOR TREATMENT AND PREVENTION OF CANCER” (Hummingbird Bioscience Pte. Ltd., priority 2022, published 2026).

B1: ISU104: anti-HER3 antibody, mainly binds to domain III of HER3 (antibody, chains of the INN, looked up, V domains shown)
VH: EVQLLESGGGLVQPGGSLRLSCAASGFTFSDYDMSWVRQAPGKGLEWVSTIDLDSGSIYYADSVQGRFTISRDNSKNTLYLQMNSLRAEDTAVYYCAKDLHMGPEGPFDYWGQGTLVTVSS
VL: QSVLTQPPSASGTPGQRVTISCSGSSSNIGSNSVSWYQQLPGTAPKLLIYSDNHRPSGVPDRFSGSKSGTSASLAISGLRSEDEADYYCQGWDTSLSGHVFGGGTKLTVL
B2: seribantumab: anti-HER3 antibody (antibody, chains of the INN, looked up)
heavy: EVQLLESGGGLVQPGGSLRLSCAASGFTFSHYVMAWVRQAPGKGLEWVSSISSSGGWTLYADSVKGRFTISRDNSKNTLYLQMNSLRAEDTAVYYCTRGLKMATIFDYWGQGTLVTVSSASTKGPSVFPLAPCSRSTSESTAALGCLVKDYFPEPVTVSWNSGALTSGVHTFPAVLQSSGLYSLSSVVTVPSSNFGTQTYTCNVDHKPSNTKVDKTVERKCCVECPPCPAPPVAGPSVFLFPPKPKDTLMISRTPEVTCVVVDVSHEDPEVQFNWYVDGVEVHNAKTKPREEQFNSTFRVVSVLTVVHQDWLNGKEYKCKVSNKGLPAPIEKTISKTKGQPREPQVYTLPPSREEMTKNQVSLTCLVKGFYPSDIAVEWESNGQPENNYKTTPPMLDSDGSFFLYSKLTVDKSRWQQGNVFSCSVMHEALHNHYTQKSLSLSPG
light: QSALTQPASVSGSPGQSITISCTGTSSDVGSYNVVSWYQQHPGKAPKLIIYEVSQRPSGVSNRFSGSKSGNTASLTISGLQTEDEADYYCCSYAGSSIFVIFGGGTKVTVLGQPKAAPSVTLFPPSSEELQANKATLVCLVSDFYPGAVTVAWKADGSPVKVGVETTKPSKQSNNKYAASSYLSLTPEQWKSHRSYSCRVTHEGSTVEKTVAPAECS

Biological target: HER3 (Homo sapiens, UniProt P21860)

Row | Molecule | inhibition of binding of heregulin (HRG)/ligand to HER3
1 | Patritumab: anti-HER3 antibody [reference compound] | inhibit HER3-mediated signaling by blocking binding of heregulin (HRG) to HER3
2 | B1 | dose-dependent inhibition of binding of HRG to HER3
3 | B2 | inhibit HER3-mediated signaling by blocking binding of heregulin (HRG) to HER3
